Laboratory results as given in article PMC2193777.

Molecular target: strepAID (human, UniProt Q9GZX7 1-198)
Assay: EMSA

Chain of strepAID (Q9GZX7 whole entry): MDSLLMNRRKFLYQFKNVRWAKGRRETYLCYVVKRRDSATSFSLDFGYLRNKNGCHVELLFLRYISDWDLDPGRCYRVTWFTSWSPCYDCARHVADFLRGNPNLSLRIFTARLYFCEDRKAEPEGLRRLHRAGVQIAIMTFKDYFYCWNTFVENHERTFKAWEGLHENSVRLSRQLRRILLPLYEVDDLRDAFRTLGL

Row | Binder | binding result
1 | ATCGGAATGTATGAGAATAGAAGAGATAATGAATAATAGAA (ssDNA) [ssDNA (TCGend)] | binds
2 | AUCGGAAUGUAUGAGAAUAGAAGAGAUAAUGAAUAAUAGAA (ssRNA) [ssRNA] | binds
